Assay results as given in patent US20200011878A1 (published 2020).
Numbering of substitutions follows the chain as printed.

Target: human NRP1 protein (human, UniProt O14786 22-856)
Assay: ELISA

B1: 1A03 anti-NRP1 IgG antibody (antibody, V domains shown)
VH: EVQLLESGGGLVQFGGSLRLSQAASGFTFSSYYMSWVRQAFGKGLEWVSAISFGSSNKYYADSVQGRFTISRDNSKNTLYLQMNELRAEDTAVYYCARRKKSFDYWGQGTLVTVSS
VL: QSVLTQFFSASGTPGQRVTISCSGFSSNIGNNDVSWYQQLFGTAPKLLIYSCNNRPSGVPDRFSGSKSGTSASLAISGLRSSDEADYYCGAWVASLSAYVFGGGTKLTVTL
With B1 as the binder, how does the Kd read?
Its Kd is 1110 nM.

B2: IRCR-101 (3H10 converted into IgG format) (antibody, V domains shown)
VH: B1 VH with G15Q, G16Q, G26Q, F53P, Q65K, K101Y, S102M
VL: GSVLTQPPSASGTPGQRVTISCTGESSNIGNNDVYWYQQLPGTAFKLLIYSQSNRPSGMPDRFSGSKSGTSASLAISGLRSEDEADYYCASWDSSLSGYVFGGGTKLTVTL
Which Kd does the source give for B2 here?
Its Kd is 426 nM.
